Experimental data published in paper doi:10.1101/2023.11.12.566739.

Assays:
[1] = biological target: T1, α-synCas (synthetic ancestral Cas12a-like nuclease, ASR) (synthetic construct (ancestral …, UniProt PDB:8QWE_1 1-1261)); test: cryo-EM
T1 chain: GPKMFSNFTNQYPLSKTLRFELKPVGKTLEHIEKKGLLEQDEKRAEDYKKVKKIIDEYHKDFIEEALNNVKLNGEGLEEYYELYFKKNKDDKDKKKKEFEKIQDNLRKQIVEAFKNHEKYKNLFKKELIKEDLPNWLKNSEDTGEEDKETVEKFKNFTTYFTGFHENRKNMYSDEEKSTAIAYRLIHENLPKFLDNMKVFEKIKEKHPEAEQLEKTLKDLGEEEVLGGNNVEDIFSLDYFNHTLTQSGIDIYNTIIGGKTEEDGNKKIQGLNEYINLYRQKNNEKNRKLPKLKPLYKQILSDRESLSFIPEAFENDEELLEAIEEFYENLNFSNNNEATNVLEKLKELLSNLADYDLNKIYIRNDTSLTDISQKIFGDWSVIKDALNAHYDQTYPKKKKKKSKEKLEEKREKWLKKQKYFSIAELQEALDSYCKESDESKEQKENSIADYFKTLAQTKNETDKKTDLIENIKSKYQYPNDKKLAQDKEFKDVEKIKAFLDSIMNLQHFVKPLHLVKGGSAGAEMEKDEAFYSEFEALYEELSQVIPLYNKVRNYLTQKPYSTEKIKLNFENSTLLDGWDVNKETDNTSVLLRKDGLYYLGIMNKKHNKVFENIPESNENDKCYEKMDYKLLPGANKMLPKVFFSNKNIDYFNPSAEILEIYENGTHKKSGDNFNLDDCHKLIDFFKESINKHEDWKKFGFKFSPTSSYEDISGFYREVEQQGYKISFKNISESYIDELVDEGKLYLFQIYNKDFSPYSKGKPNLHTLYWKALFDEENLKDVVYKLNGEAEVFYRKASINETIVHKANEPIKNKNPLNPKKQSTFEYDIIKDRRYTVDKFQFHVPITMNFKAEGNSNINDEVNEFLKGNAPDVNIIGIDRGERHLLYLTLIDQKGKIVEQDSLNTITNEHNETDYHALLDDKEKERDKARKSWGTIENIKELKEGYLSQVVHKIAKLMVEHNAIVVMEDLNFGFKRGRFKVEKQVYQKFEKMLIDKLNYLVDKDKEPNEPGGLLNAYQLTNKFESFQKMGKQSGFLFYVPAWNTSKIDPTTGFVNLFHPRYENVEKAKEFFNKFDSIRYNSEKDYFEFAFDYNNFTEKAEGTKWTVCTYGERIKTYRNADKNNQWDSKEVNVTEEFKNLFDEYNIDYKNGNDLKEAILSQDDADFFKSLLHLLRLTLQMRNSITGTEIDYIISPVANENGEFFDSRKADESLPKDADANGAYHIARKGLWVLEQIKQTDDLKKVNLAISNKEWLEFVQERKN

[2] = biological target: T1, α-synCas (synthetic ancestral …); test: size exclusion chromatography

B1: crRNA + target dsDNA (cis DNA), ternary complex (mixed)
RNA: AAUUUCUACUGUUGUAGAUUCCUAAGGCGUUACCCCAAU
DNA 1: CTAGCATATTTATCCTAAGGCGTTACCCCAATGGGAGGG
DNA 2: CCCTCCCATTGGGGTAACGCCTTAGGATAAATATGCTAG
B1: binds [1].

B2: crRNA (cryo-EM) (structured_RNA)
RNA: B1 RNA
B2: binds [2].
